The target of series [1] is T1, fluorescently quenched α-gliadin hexapeptide analogue QXL520-PQPQLP-K(5-FAM)-NH2.
T1 chain: PQPQLP

The target of the next series is T2, Suc-APR-pNA.
T2 chain: APR

In a further series the target is T3, Suc-APE-pNA.
T3 chain: APE

Series [2] addresses T4, immunodominant α9-gliadin peptide QLQPFPQPQLPY
T4 chain: QLQPFPQPQLPY

For the next series, the target named is T5, Suc-APQ-pNA.
T5 chain: APQ

Changes are numbered by the printed parent chain. Names and notes keep the numbering of the source.

B1: Kumamolisin-As (wild type) (protein)
chain: AAPTAYTPLDVAQAYQFPEGLDGQGQCIAIIELGGGYDEASLAQYFASLGVPAPQVVSVSVDGASNQPTGDPSGPDGEVELDIEVAGALAPGAKFAVYFAPNTDAGFLDAITTAIHDPTLKPSVVSISWGGPEDSWTSAAIAAMNRAFLDAAALGVTVLAAAGDSGSTDGEQDGLYHVDFPAASPYVLACGGTRLVASGGRIAQETVWNDGPDGGATGGGVSRIFPLPAWQEHANVPPSANPGASSGRGVPDLAGNADPATGYEVVIDGEATVIGGTSAVAPLFAALVARINQKLGKAVGYLNPTLYQLPADVFHDITEGNNDIANRAQIYQAGPGWDPCTGLGSPIGVRLLQALLPSASQPQPGSTENLYFQSGALEHHHHHH
As for B1, the Catalytic Efficiency (kcat/KM) was determined as 4.9 M⁻¹ s⁻¹ in series [1], 132 M⁻¹ s⁻¹ in the series with Suc-APR-pNA and 4 M⁻¹ s⁻¹ in the series with Suc-APE-pNA. In series [1], this protein gave a Fold Change in Activity of PQ Hydrolysis Relative to Wild Type Kumamolysin-As of 1 fold.

B2: Kumamolisin-As N291D, G319S, D358G, D368H (protein)
chain: B1 chain with N102D, G130S, D169G, D179H
With B2, in series [1], the Fold Change in Activity of PQ Hydrolysis Relative to Wild Type Kumamolysin-As amounted to 93 fold.

B3: Kumamolisin-As G319S, S354N, D358G, D368H (protein)
chain: B1 chain with G130S, S165N, D169G, D179H
In series [1], B3 displayed a Fold Change in Activity of PQ Hydrolysis Relative to Wild Type Kumamolysin-As of 5 fold.

B4: Kumamolisin-As N291D, D293A, G319S, S354N, D358G, Q361D, D368H (protein)
chain: B1 chain with N102D, D104A, G130S, S165N, D169G, Q172D, D179H
The protein B4 showed a Fold Change in Activity of PQ Hydrolysis Relative to Wild Type Kumamolysin-As in series [1] of 58 fold.

B5: Kumamolisin-As N291D, G319S, S354N, D358G, D368H (protein)
chain: B1 chain with N102D, G130S, S165N, D169G, D179H
B5 returned a Fold Change in Activity of PQ Hydrolysis Relative to Wild Type Kumamolysin-As in series [1] of 54.6 fold.

B6: Kumamolisin-As S262K, D293N, N291D, G319S, D358G, D368H (protein)
chain: B1 chain with S73K, N102D, D104N, G130S, D169G, D179H
In series [1], B6 registered a Fold Change in Activity of PQ Hydrolysis Relative to Wild Type Kumamolysin-As of 62 fold.

B7: Kumamolisin-As D358G, D368H (protein)
chain: B1 chain with D169G, D179H
With B7, the Fold Change in Activity of PQ Hydrolysis Relative to Wild Type Kumamolysin-As in series [1] came out at 6 fold.

B8: Kumamolisin-As D358N (protein)
chain: B1 chain with D169N
For the protein B8, the Fold Change in Activity of PQ Hydrolysis Relative to Wild Type Kumamolysin-As in series [1] was 4 fold.

B9: Kumamolisin-As D293T, N291D, G319S, D358G, D368H (protein)
chain: B1 chain with N102D, D104T, G130S, D169G, D179H
The protein B9 yielded a Fold Change in Activity of PQ Hydrolysis Relative to Wild Type Kumamolysin-As in series [1] of 58 fold.

B10: Kumamolisin-As G319S, D358G, D368H (protein)
chain: B1 chain with G130S, D169G, D179H
In series [1], B10 registered a Fold Change in Activity of PQ Hydrolysis Relative to Wild Type Kumamolysin-As of 7 fold.

B11: Kumamolisin-As G319S, D368S (protein)
chain: B1 chain with G130S, D179S
In series [1], B11 returned a Fold Change in Activity of PQ Hydrolysis Relative to Wild Type Kumamolysin-As of 2 fold.

B12: Kumamolisin-As T357A (protein)
chain: B1 chain with T168A
Consider B12, for which the Fold Change in Activity of PQ Hydrolysis Relative to Wild Type Kumamolysin-As in series [1] came to 2 fold.

B13: Kumamolisin-As D358G (protein)
chain: B1 chain with D169G
In turn, B13 displayed a Fold Change in Activity of PQ Hydrolysis Relative to Wild Type Kumamolysin-As in series [1] of 3 fold.

B14: Kumamolisin-As D293A (protein)
chain: B1 chain with D104A
For the protein B14, the Fold Change in Activity of PQ Hydrolysis Relative to Wild Type Kumamolysin-As in series [1] came to 3 fold.

B15: KumaMax™ (Kumamolisin-As V119D, S262K, N291D, D293T, G319S, D358G, D368H) (protein)
chain: B1 chain with S73K, N102D, D104T, G130S, D169G, D179H
With B15, in series [2], the “fraction of immunogenic peptide proteolyzed after 50 minutes (LC-MS, pH 4, 37° C.)” value is recorded as “over 95% of the immunogenic peptide had been proteolyzed after a 50 minute incubation” and the “half-life of the peptide in the presence of KumaMax” value worked out at 8.5 ± 0.7 min. In the series with Suc-APQ-pNA, this protein registered a Catalytic Efficiency (kcat/KM) of 6.7 M⁻¹ s⁻¹. In series [1], this protein had a Catalytic Efficiency (kcat/KM) of 568 M⁻¹ s⁻¹ and a Fold Change in Activity of PQ Hydrolysis Relative to Wild Type Kumamolysin-As of 120 fold. Moreover, in the series with Suc-APE-pNA, the Catalytic Efficiency (kcat/KM) is 1.4 M⁻¹ s⁻¹ and the “fold decrease in activity compared to its activity on the PQ substrate” value is “roughly 5-fold decrease in activity on the PE peptide substrate compared to its activity on the PQ substrate”.

The record behind these values is US20190083585.
